Test results taken from paper PMC5352738, “Characterization of three pyranose dehydrogenase isoforms from the litter-decomposing basidiomycete Leucoagaricus meleagris (syn. Agaricus meleagris)” (Applied Microbiology and Biotechnology, 2016).

B1: AmPDH1 (Macropsalliota meleagris) (protein)
chain: AITYQHPDDLPSGVDYDFIVAGGGTAGLVVASRLSENSNWKVLVIEAGPSNKDAFVTRVPGLASTLGAGSPIDWNYTTIPQDGLDGRSLDYPRAKILGGCSTHNGMVYTRGSKDDWNSWAGIIGDQGLGWDSILPAIKKAEKFTQDFTDQSVKGHIDPSVHGFDGKLSVSAAYSNISFNDLLFETTKELNAEFPFKLDMNDGKPIGLGWTQYTIDNHAERSSSATSYLESTGDNVHVLVNTLVTRVLSASGNGTDFRKVEFAVDANSPKKQLEAKKEVIVAGGVIASPQILMNSGIGERKVLQAVGIDTLIDNPSVGKNLSDQGATSVMFDTTLPSTDFDVDAALTEWTNSHTGPLARGARLNHLTFVRLPDDKLNGQDPSSGKNSPHIEFQFAQITPQVPTLGVPKQAPLPAANSYRLLLQLAVVNLYSISRGSISLSDNNPFTYPLIDLNMFKEDIDIAILREGIRSAGRMFSSKAFKNSVNKFVYPPADATSDEDLDAFLRSSTFSYVHGVGTLSMSPKGASWGVVNPDFKVKGTSGLRVVDASVIPHAPAAHTQLPVYAFAEYASALIAKSYN
notes: full-length pdh1 (602 aa precursor) in pPICZB-His6, His6-tag kept, secreted from Pichia pastoris X33; N-glycosylated monomer, ~65 kDa deglycosylated; covalent FAD
B2: AmPDH2 (Macropsalliota meleagris) (protein)
chain: AITYQHPDDLPSGVDYDFIVAGGGTAGLVVASRLSENSKWNVLVIEAGPSNKDTPETRIPGLADNLPGTRTDWNYTTIPQDALGGRSLNYSRAKVLGGCSTHNGMVYTRGPRDDWNYWAEITDNQALKWDNVLPIMKNTEKFSQDFLDQSMEGHIDPSVHGFDGMLSVVASYTNVSFNNLLLETTRELSDEFPFKLDLNDGKPHGLAWTQYTIDQGAERSSSATSYLESTGDNVHVLVNTHVTRIVSAGNETDFRSVEFAVDANSPKKVLTAKKELILSAGVIASPQILMNSGIGGREELQAIGVDTLIDNPSVGRNLSDQASTLLMFDTTLPNTDYDVAAALTEWDNSRSGPMAYAARLNHLTWVRLPDDKLSGSDPSSGHDSPHIEFQFRQISHQLPPADVPNQVQLPDPDSIGVVLQFSVVNLYSISLGSVTLNNNDPFADPIIDLNMFGDQKDIAILREGVRSARRMFSSQAFKNVVHETVYPPAGVTSDEDLDAFLRTSAVSYLHGVGTLSMSPHSASWGVVNPDFRVKGTTGLRVVDASVIPRAPAGHTQIPVYTFAEHASALIADSYN
notes: full-length pdh2 (600 aa precursor) in pPICZB-His6, His6-tag kept, secreted from Pichia pastoris X33; N-glycosylated, ~65 kDa deglycosylated; covalent FAD
B3: AmPDH3 (Macropsalliota meleagris) (protein)
chain: AITYQHPDDLPSDVDYDFIVAGGGTAGLVVASRLSENPDWNILVIEAGPSNKDAPETRVPGLAGSLPASRTDWNYTTIPQDALGGRSLNYSRAKVLGGCSSHNSMVYTRGSKDDWNHWADITGDQGLSWDSILPVMKKAEKFSKDFSNQSVDGHIDPSMHGHDGLLSVVSSYTNVSFNDLLLETTKELSDEFPFKLDLNDGNPHGLAWTQYTIDHRAERSSSATSYLESTRDNVHVLVNSRVTRIFSAGNGTDFRSVEFAVDANSPKKVLTAKKEVILSAGVIASPQVLMNSGIGGREELQAIGVDTLIDNPSVGKNLSDQAATLLMFDTTLPNTDYDVAAALTEWEDSRSGPMAYGARLNHLTWVRLLDDKLNGSDPSSGKNSPHIEFQFMQISHQLPPADAPNQVKLPDPDSIGAVLLLAVVNLYSVSHGSIILNDNDPFANPMIDLNMFGDQKDIAILREGVRSARRMFSSQAFKDVVNGTVYPPADVTSDEDLDAFLRTSAISYWHGVGTLSMSPQNASWGVVDPDFRVKGTSGLRVVDASVIPYAPAGHTQVPVYTFAEHASVLIAKSYA
notes: full-length pdh3 (600 aa precursor) in pPICZB-His6, His6-tag kept, secreted from Pichia pastoris X33; strongly N-glycosylated, ~65 kDa deglycosylated; standard yellow form with covalent FAD

What was measured:
[1] = substrate: CO[C@H]1O[C@H](CO)[C@@H](O)[C@H](O)[C@H]1O; assay: purified protein; assay type: biochemical, Macropsalliota meleagris; conditions: electron donor, 0.2 mM ferrocenium, 50 mM Na phosphate pH 7.5, 30 °C
[2] = substrate: O=C1C=CC(=O)C=C1; assay: purified protein; assay type: biochemical, Macropsalliota meleagris; conditions: electron acceptor, 25 mM D-glucose, 100 mM Na acetate pH 4.0, 30 °C

| Protein | Km [1] | kcat [1] | kcat/Km [1] | Km [2] | kcat [2] | kcat/Km [2] |
| --- | --- | --- | --- | --- | --- | --- |
| B1 | 660 ± 50 µM | 41.5 ± 0.8 s⁻¹ | 62900 M⁻¹ s⁻¹ | – | – | – |
| B2 | 2000 ± 60 µM | 85 ± 0.6 s⁻¹ | 42500 M⁻¹ s⁻¹ | 32.5 ± 1.9 µM | 23.4 ± 0.5 s⁻¹ | 780000 M⁻¹ s⁻¹ |
| B3 | 950 ± 60 µM | 1 ± 0.01 s⁻¹ | 1050 M⁻¹ s⁻¹ | 1880 ± 140 µM | 3.57 ± 0.11 s⁻¹ | 1890 M⁻¹ s⁻¹ |
